Source: the RNAGym collection of RNA variant scans (doi:10.7554/elife.80360)

B1: Twister Ribozyme (parent)
chain: AACACUGCCAAUGCCGGUCCCAAGCCCGGAUAAAAGUGGAGGGGGCGG

Variants of: B1
Experiment: self-cleavage, relative activity (ratio to wild type); higher = more cleavage; co-transcriptional

First: C5U G17C
Second: U6G G45C
The self-cleavage of the first is lower: 0.0605 for the first, 0.104 for the second.

Compared with U6G G45U, U6C C9G is lower in self-cleavage: 0.129 for the first, 0.122 for the second.

First: U6C C9U
Second: U6C G36U
The self-cleavage of the first is lower: 0.0507 for the first, 0.0917 for the second.

First: U6C G36A
Second: G7A G28U
The self-cleavage of the first is lower: 0.136 for the first, 0.28 for the second.

First: G7A A11C
Second: G7A A34U
The self-cleavage of the first is lower: 0.0895 for the first, 0.154 for the second.

Compared with U6A C15U, U6C C21U is lower in self-cleavage: 0.649 for the first, 0.0537 for the second.

First: U6G G36C
Second: U6G G36U
The self-cleavage of the first is higher: 0.0766 for the first, 0.0341 for the second.

Compared with C5G G45C, U6G C14U is higher in self-cleavage: 0.222 for the first, 0.608 for the second.

Going from U6C A32G to U6G U31C, the self-cleavage falls from 0.518 to 0.365.

Compared with U6G U31A, C5G G16U is lower in self-cleavage: 0.169 for the first, 0.0938 for the second.

Compared with C5G G16C, C5U G42C is higher in self-cleavage: 0.0784 for the first, 0.287 for the second.

Compared with C5U G42U, C5U G42A is higher in self-cleavage: 0.134 for the first, 0.184 for the second.

Compared with U6G A35C, U6G A35U is lower in self-cleavage: 0.678 for the first, 0.549 for the second.

Compared with C5G G36C, C5G G36A is lower in self-cleavage: 0.966 for the first, 0.732 for the second.

First: C5G G7C
Second: C5G G41A
The self-cleavage of the first is lower: 0.0519 for the first, 0.168 for the second.

First: U6C A22U
Second: G7A C46A
The self-cleavage of the first is lower: 0.141 for the first, 0.354 for the second.

First: U6G G41C
Second: C5U A40U
The self-cleavage of the first is lower: 0.092 for the first, 0.146 for the second.

First: U6G G48C
Second: U6G G48A
The self-cleavage of the first is higher: 0.358 for the first, 0.24 for the second.

First: C5G C26U
Second: C5G C26A
The self-cleavage of the first is lower: 0.104 for the first, 0.126 for the second.

Going from G7A C27A to C5G G38A, the self-cleavage rises from 0.112 to 0.298.

Going from U6C A23U to U6C G38U, the self-cleavage rises from 0.0534 to 0.282.

Compared with C5G A34U, U6A A22C is higher in self-cleavage: 0.309 for the first, 0.936 for the second.

Going from U6A A22U to G7A C21U, the self-cleavage falls from 0.816 to 0.103.

Going from G7A C21A to G7A A33G, the self-cleavage rises from 0.059 to 0.243.

Compared with G7A A33C, U6A G13C is lower in self-cleavage: 0.211 for the first, 0.072 for the second.

Going from U6A G13A to U6A A35C, the self-cleavage rises from 0.195 to 1.04.

First: C5U A35C
Second: C5U A35U
The self-cleavage of the first is lower: 0.82 for the first, 0.91 for the second.

Going from U6G A23U to C5U A10U, the self-cleavage rises from 0.0909 to 0.816.

Compared with C5U A10G, C5U A10C is higher in self-cleavage: 0.869 for the first, 1.06 for the second.

First: G7A C19A
Second: C5U G16C
The self-cleavage of the first is lower: 0.0667 for the first, 0.159 for the second.

Going from C5U G16A to U6G C25A, the self-cleavage falls from 0.584 to 0.058.

Compared with U6G U12G, U6G U12A is higher in self-cleavage: 0.343 for the first, 0.769 for the second.

First: U6G U12C
Second: C5U A22C
The self-cleavage of the first is lower: 0.35 for the first, 0.963 for the second.

Compared with C5U A22U, U6G G47U is lower in self-cleavage: 0.526 for the first, 0.151 for the second.

Going from C5G U31A to C5G U31C, the self-cleavage falls from 0.634 to 0.584.

Compared with C5G U31G, C5U G13C is lower in self-cleavage: 0.757 for the first, 0.13 for the second.

First: C5G C25U
Second: G7A G17U
The self-cleavage of the first is higher: 0.411 for the first, 0.103 for the second.

Compared with G7A G17A, U6C G17A is higher in self-cleavage: 0.083 for the first, 0.0938 for the second.

First: U6C G17C
Second: U6A A34U
The self-cleavage of the first is lower: 0.0484 for the first, 1.04 for the second.

First: C5U U37G
Second: C5U U37C
The self-cleavage of the first is higher: 0.432 for the first, 0.283 for the second.

Going from C5U U37A to G7A C25A, the self-cleavage falls from 0.547 to 0.0809.

Going from G7A C25G to C5G U6A, the self-cleavage rises from 0.237 to 0.404.

Going from C5G U6G to G7A A40U, the self-cleavage falls from 0.232 to 0.127.

Compared with G7A A40C, U6A G39C is higher in self-cleavage: 0.132 for the first, 0.183 for the second.

Compared with U6A G39A, U6G A33G is lower in self-cleavage: 0.255 for the first, 0.199 for the second.

Going from U6G A33U to U6C G16A, the self-cleavage rises from 0.234 to 0.318.

First: U6C G16C
Second: C5G U18A
The self-cleavage of the first is higher: 0.146 for the first, 0.104 for the second.

Going from C5G U18C to C5G U18G, the self-cleavage falls from 0.196 to 0.0734.

Compared with U6A G41A, U6A G41C is lower in self-cleavage: 0.203 for the first, 0.182 for the second.

First: U6A G41U
Second: U6G U18C
The self-cleavage of the first is higher: 0.204 for the first, 0.131 for the second.

First: U6G U18A
Second: G7A A35U
The self-cleavage of the first is lower: 0.0684 for the first, 0.546 for the second.

Compared with G7A A35G, U6A A11U is higher in self-cleavage: 0.123 for the first, 1.03 for the second.

Compared with C5U A11U, C5U A11C is lower in self-cleavage: 0.564 for the first, 0.541 for the second.

Going from U6G A30G to U6G A30U, the self-cleavage rises from 0.322 to 0.687.

Compared with U6G A11U, U6C C19G is lower in self-cleavage: 0.381 for the first, 0.0653 for the second.

Compared with U6C C19U, C5G C9A is higher in self-cleavage: 0.131 for the first, 0.167 for the second.

First: C5G C9G
Second: G7A C9U
The self-cleavage of the first is higher: 0.125 for the first, 0.0809 for the second.

Going from U6A G36U to C5G C14U, the self-cleavage rises from 0.202 to 0.793.

Compared with C5G G43C, C5G G43A is higher in self-cleavage: 0.122 for the first, 0.153 for the second.

Compared with C5G G43U, C5U G41A is higher in self-cleavage: 0.136 for the first, 0.214 for the second.

Compared with U6C G24A, U6C G24C is lower in self-cleavage: 0.0737 for the first, 0.0688 for the second.

First: U6C G43U
Second: U6C G43A
The self-cleavage of the first is higher: 0.134 for the first, 0.0844 for the second.

Compared with U6C G43C, U6C G29A is higher in self-cleavage: 0.128 for the first, 0.34 for the second.

Compared with U6C G29U, U6G G42C is lower in self-cleavage: 0.371 for the first, 0.156 for the second.

Compared with U6G G42U, U6G G7C is higher in self-cleavage: 0.0829 for the first, 0.873 for the second.

Compared with U6C U37C, U6C U37A is higher in self-cleavage: 0.0955 for the first, 0.131 for the second.

Going from C5G G48U to U6A A33G, the self-cleavage rises from 0.627 to 0.881.

Going from C5G U37A to U6A C8U, the self-cleavage falls from 0.404 to 0.175.

Compared with U6A C8A, C5U G36U is higher in self-cleavage: 0.104 for the first, 0.644 for the second.

Compared with U6C G42C, U6C G42U is lower in self-cleavage: 0.11 for the first, 0.107 for the second.

Going from U6C G44C to U6C G44A, the self-cleavage rises from 0.513 to 0.63.

Compared with G7A G24U, C5G C8A is higher in self-cleavage: 0.0739 for the first, 0.15 for the second.

Going from U6C A10C to U6C A10U, the self-cleavage falls from 0.772 to 0.602.

Going from C5U C9G to U6C C46A, the self-cleavage rises from 0.342 to 0.65.

Compared with U6A G43A, U6G G44U is higher in self-cleavage: 0.223 for the first, 0.242 for the second.

First: G7A C15G
Second: C5G G17A
The self-cleavage of the first is lower: 0.0625 for the first, 0.0746 for the second.

Compared with C5G A35U, U6A G44A is higher in self-cleavage: 0.637 for the first, 0.943 for the second.

Going from U6A G44U to U6A G44C, the self-cleavage falls from 0.925 to 0.874.

First: U6A U12A
Second: U6G C15G
The self-cleavage of the first is higher: 1.13 for the first, 0.0391 for the second.

Going from C5U G45A to U6G C9G, the self-cleavage falls from 0.605 to 0.171.

Going from U6G C9U to U6C A11U, the self-cleavage rises from 0.163 to 0.673.

First: U6C A11G
Second: U6C A11C
The self-cleavage of the first is higher: 0.535 for the first, 0.292 for the second.

Going from U6A C9G to G7A C26G, the self-cleavage falls from 0.244 to 0.0601.

In the case of G7A C26U, the self-cleavage is reported as 0.102.
